{"source": "paper PMC11574045", "about": "“A cofactor-induced repressive type of transcription factor condensation can be induced by synthetic peptides to suppress tumorigenesis” (The EMBO Journal, 2024)", "molecules": {"B1": {"name": "NFATX (protein, UniProt Q12968 2-1075, looked up)", "Nuclear factor of activated …": "TTANCGAHDELDFKLVFGEDGAPAPPPPGSRPADLEPDDCASIYIFNVDPPPSTLTTPLCLPHHGLPSHSSVLSPSFQLQSHKNYEGTCEIPESKYSPLGGPKPFECPSIQITSISPNCHQELDAHEDDLQINDPEREFLERPSRDHLYLPLEPSYRESSLSPSPASSISSRSWFSDASSCESLSHIYDDVDSELNEAAARFTLGSPLTSPGGSPGGCPGEETWHQQYGLGHSLSPRQSPCHSPRSSVTDENWLSPRPASGPSSRPTSPCGKRRHSSAEVCYAGSLSPHHSPVPSPGHSPRGSVTEDTWLNASVHGGSGLGPAVFPFQYCVETDIPLKTRKTSEDQAAILPGKLELCSDDQGSLSPARETSIDDGLGSQYPLKKDSCGDQFLSVPSPFTWSKPKPGHTPIFRTSSLPPLDWPLPAHFGQCELKIEVQPKTHHRAHYETEGSRGAVKASTGGHPVVKLLGYNEKPINLQMFIGTADDRYLRPHAFYQVHRITGKTVATASQEIIIASTKVLEIPLLPENNMSASIDCAGILKLRNSDIELRKGETDIGRKNTRVRLVFRVHIPQPSGKVLSLQIASIPVECSQRSAQELPHIEKYSINSCSVNGGHEMVVTGSNFLPESKIIFLEKGQDGRPQWEVEGKIIREKCQGAHIVLEVPPYHNPAVTAAVQVHFYLCNGKRKKSQSQRFTYTPVLMKQEHREEIDLSSVPSLPVPHPAQTQRPSSDSGCSHDSVLSGQRSLICSIPQTYASMVTSSHLPQLQCRDESVSKEQHMIPSPIVHQPFQVTPTPPVGSSYQPMQTNVVYNGPTCLPINAASSQEFDSVLFQQDATLSGLVNLGCQPLSSIPFHSSNSGSTGHLLAHTPHSVHTLPHLQSMGYHCSNTGQRSLSSPVADQITGQPSSQLQPITYGPSHSGSATTASPAASHPLASSPLSGPPSPQLQPMPYQSPSSGTASSPSPATRMHSGQHSTQAQSTGQGGLSAPSSLICHSLCDPASFPPDGATVSIKPEPEDREPNFATIGLQDITLDDVNEIIGRDMSQISVSQGAGVSRQAPLPSPESLDLGRSDGL"}, "B2": {"name": "NFKB2 (protein, UniProt Q00653 1-900, looked up)", "Nuclear factor NF-kappa-B …": "MESCYNPGLDGIIEYDDFKLNSSIVEPKEPAPETADGPYLVIVEQPKQRGFRFRYGCEGPSHGGLPGASSEKGRKTYPTVKICNYEGPAKIEVDLVTHSDPPRAHAHSLVGKQCSELGICAVSVGPKDMTAQFNNLGVLHVTKKNMMGTMIQKLQRQRLRSRPQGLTEAEQRELEQEAKELKKVMDLSIVRLRFSAFLRASDGSFSLPLKPVISQPIHDSKSPGASNLKISRMDKTAGSVRGGDEVYLLCDKVQKDDIEVRFYEDDENGWQAFGDFSPTDVHKQYAIVFRTPPYHKMKIERPVTVFLQLKRKRGGDVSDSKQFTYYPLVEDKEEVQRKRRKALPTFSQPFGGGSHMGGGSGGAAGGYGGAGGGGSLGFFPSSLAYSPYQSGAGPMGCYPGGGGGAQMAATVPSRDSGEEAAEPSAPSRTPQCEPQAPEMLQRAREYNARLFGLAQRSARALLDYGVTADARALLAGQRHLLTAQDENGDTPLHLAIIHGQTSVIEQIVYVIHHAQDLGVVNLTNHLHQTPLHLAVITGQTSVVSFLLRVGADPALLDRHGDSAMHLALRAGAGAPELLRALLQSGAPAVPQLLHMPDFEGLYPVHLAVRARSPECLDLLVDSGAEVEATERQGGRTALHLATEMEELGLVTHLVTKLRANVNARTFAGNTPLHLAAGLGYPTLTRLLLKAGADIHAENEEPLCPLPSPPTSDSDSDSEGPEKDTRSSFRGHTPLDLTCSTKVKTLLLNAAQNTMEPPLTPPSPAGPGLSLGDTALQNLEQLLDGPEAQGSWAELAERLGLRSLVDTYRQTTSPSGSLLRSYELAGGDLAGLLEALSDMGLEEGVRLLRGPETRDKLPSTAEVKEDSAYGSQSVEQEAEKLGPPPEPPGGLCHGHPQPQVH"}, "B3": {"name": "NFKBIB (protein, UniProt Q15653 1-356, looked up)", "NF-kappa-B inhibitor beta": "MAGVACLGKAADADEWCDSGLGSLGPDAAAPGGPGLGAELGPGLSWAPLVFGYVTEDGDTALHLAVIHQHEPFLDFLLGFSAGTEYMDLQNDLGQTALHLAAILGETSTVEKLYAAGAGLCVAERRGHTALHLACRVGAHACARALLQPRPRRPREAPDTYLAQGPDRTPDTNHTPVALYPDSDLEKEEEESEEDWKLQLEAENYEGHTPLHVAVIHKDVEMVRLLRDAGADLDKPEPTCGRSPLHLAVEAQAADVLELLLRAGANPAARMYGGRTPLGSAMLRPNPILARLLRAHGAPEPEGEDEKSGPCSSSSDSDSGDEGDEYDDIVVHSSRSQTRLPPTPASKPLPDDPRPV"}, "B4": {"name": "ATF2/CRE-BP (protein, UniProt P15336 1-505, looked up)", "Cyclic AMP-dependent …": "MKFKLHVNSARQYKDLWNMSDDKPFLCTAPGCGQRFTNEDHLAVHKHKHEMTLKFGPARNDSVIVADQTPTPTRFLKNCEEVGLFNELASPFENEFKKASEDDIKKMPLDLSPLATPIIRSKIEEPSVVETTHQDSPLPHPESTTSDEKEVPLAQTAQPTSAIVRPASLQVPNVLLTSSDSSVIIQQAVPSPTSSTVITQAPSSNRPIVPVPGPFPLLLHLPNGQTMPVAIPASITSSNVHVPAAVPLVRPVTMVPSVPGIPGPSSPQPVQSEAKMRLKAALTQQHPPVTNGDTVKGHGSGLVRTQSEESRPQSLQQPATSTTETPASPAHTTPQTQSTSGRRRRAANEDPDEKRRKFLERNRAAASRCRQKRKVWVQSLEKKAEDLSSLNGQLQSEVTLLRNEVAQLKQLLLAHKDCPVTAMQKKSGYHTADKDDSSEDISVPSSPHTEAIQHSSVSTSNGVSSTSKAEAVATSVLTQMADQSTEPALSQIVMAPSSQSQPSGS"}, "B5": {"name": "NFIL3 (protein, UniProt Q16649 1-462, looked up)", "Nuclear factor …": "MQLRKMQTVKKEQASLDASSNVDKMMVLNSALTEVSEDSTTGEELLLSEGSVGKNKSSACRRKREFIPDEKKDAMYWEKRRKNNEAAKRSREKRRLNDLVLENKLIALGEENATLKAELLSLKLKFGLISSTAYAQEIQKLSNSTAVYFQDYQTSKSNVSSFVDEHEPSMVSSSCISVIKHSPQSSLSDVSEVSSVEHTQESSVQGSCRSPENKFQIIKQEPMELESYTREPRDDRGSYTASIYQNYMGNSFSGYSHSPPLLQVNRSSSNSPRTSETDDGVVGKSSDGEDEQQVPKGPIHSPVELKHVHATVVKVPEVNSSALPHKLRIKAKAMQIKVEAFDNEFEATQKLSSPIDMTSKRHFELEKHSAPSMVHSSLTPFSVQVTNIQDWSLKSEHWHQKELSGKTQNSFKTGVVEMKDSGYKVSDPENLYLKQGIANLSAEVVSLKRLIATQPISASDSG"}, "B6": {"name": "NKX2.5 (protein, UniProt P52952 1-324, looked up)", "Homeobox protein Nkx-2.5": "MFPSPALTPTPFSVKDILNLEQQQRSLAAAGELSARLEATLAPSSCMLAAFKPEAYAGPEAAAPGLPELRAELGRAPSPAKCASAFPAAPAFYPRAYSDPDPAKDPRAEKKELCALQKAVELEKTEADNAERPRARRRRKPRVLFSQAQVYELERRFKQQRYLSAPERDQLASVLKLTSTQVKIWFQNRRYKCKRQRQDQTLELVGLPPPPPPPARRIAVPVLVRDGKPCLGDSAPYAPAYGVGLNPYGYNAYPAYPGYGGAACSPGYSCTAAYPAGPSPAQPATAAANNNFVNFGVGDLNAVQSPGIPQSNSGVSTLHGIRAW"}, "B7": {"name": "NFX1 (protein, UniProt Q12986 1-1120, looked up)", "Transcriptional repressor …": "MAEAPPVSGTFKFNTDAAEFIPQEKKNSGLNCGTQRRLDSNRIGRRNYSSPPPCHLSRQVPYDEISAVHQHSYHPSGSKPKSQQTSFQSSPCNKSPKSHGLQNQPWQKLRNEKHHIRVKKAQSLAEQTSDTAGLESSTRSESGTDLREHSPSESEKEVVGADPRGAKPKKATQFVYSYGRGPKVKGKLKCEWSNRTTPKPEDAGPESTKPVGVFHPDSSEASSRKGVLDGYGARRNEQRRYPQKRPPWEVEGARPRPGRNPPKQEGHRHTNAGHRNNMGPIPKDDLNERPAKSTCDSENLAVINKSSRRVDQEKCTVRRQDPQVVSPFSRGKQNHVLKNVETHTGSLIEQLTTEKYECMVCCELVRVTAPVWSCQSCYHVFHLNCIKKWARSPASQADGQSGWRCPACQNVSAHVPNTYTCFCGKVKNPEWSRNEIPHSCGEVCRKKQPGQDCPHSCNLLCHPGPCPPCPAFMTKTCECGRTRHTVRCGQAVSVHCSNPCENILNCGQHQCAELCHGGQCQPCQIILNQVCYCGSTSRDVLCGTDVGKSDGFGDFSCLKICGKDLKCGNHTCSQVCHPQPCQQCPRLPQLVRCCPCGQTPLSQLLELGSSSRKTCMDPVPSCGKVCGKPLPCGSLDFIHTCEKLCHEGDCGPCSRTSVISCRCSFRTKELPCTSLKSEDATFMCDKRCNKKRLCGRHKCNEICCVDKEHKCPLICGRKLRCGLHRCEEPCHRGNCQTCWQASFDELTCHCGASVIYPPVPCGTRPPECTQTCARVHECDHPVYHSCHSEEKCPPCTFLTQKWCMGKHEFRSNIPCHLVDISCGLPCSATLPCGMHKCQRLCHKGECLVDEPCKQPCTTPRADCGHPCMAPCHTSSPCPVTACKAKVELQCECGRRKEMVICSEASSTYQRIAAISMASKITDMQLGGSVEISKLITKKEVHQARLECDEECSALERKKRLAEAFHISEDSDPFNIRSSGSKFSDSLKEDARKDLKFVSDVEKEMETLVEAVNKGKNSKKSHSFPPMNRDHRRIIHDLAQVYGLESVSYDSEPKRNVVVTAIRGKSVCPPTTLTGVLEREMQARPPPPIPHHRHQSDKNPGSSNLQKITKEPIIDYFDVQD"}, "B8": {"name": "NKX2-2 (protein, UniProt O95096 1-273, looked up)", "Homeobox protein Nkx-2.2": "MSLTNTKTGFSVKDILDLPDTNDEEGSVAEGPEEENEGPEPAKRAGPLGQGALDAVQSLPLKNPFYDSSDNPYTRWLASTEGLQYSLHGLAAGAPPQDSSSKSPEPSADESPDNDKETPGGGGDAGKKRKRRVLFSKAQTYELERRFRQQRYLSAPEREHLASLIRLTPTQVKIWFQNHRYKMKRARAEKGMEVTPLPSPRRVAVPVLVRDGKPCHALKAQDLAAATFQAGIPFSAYSAQSLQHMQYNAQYSSASTPQYPTAHPLVQAQQWTW"}, "B9": {"name": "NFKBIA (protein, UniProt P25963 1-317, looked up)", "NF-kappa-B inhibitor alpha": "MFQAAERPQEWAMEGPRDGLKKERLLDDRHDSGLDSMKDEEYEQMVKELQEIRLEPQEVPRGSEPWKQQLTEDGDSFLHLAIIHEEKALTMEVIRQVKGDLAFLNFQNNLQQTPLHLAVITNQPEIAEALLGAGCDPELRDFRGNTPLHLACEQGCLASVGVLTQSCTTPHLHSILKATNYNGHTCLHLASIHGYLGIVELLVSLGADVNAQEPCNGRTALHLAVDLQNPDLVSLLLKCGADVNRVTYQGYSPYQLTWGRPSTRIQQQLGQLTLENLQMLPESEDEESYDTESEFTEFTEDELPYDDCVFGGQRLTL"}, "B10": {"name": "NFYB (protein, UniProt P25208 1-207, looked up)", "Nuclear transcription factor …": "MTMDGDSSTTDASQLGISADYIGGSHYVIQPHDDTEDSMNDHEDTNGSKESFREQDIYLPIANVARIMKNAIPQTGKIAKDAKECVQECVSEFISFITSEASERCHQEKRKTINGEDILFAMSTLGFDSYVEPLKLYLQKFREAMKGEKGIGGAVTATDGLSEELTEEAFTNQLPAGLITTDGQQQNVMVYTTSYQQISGVQQIQFS"}, "B11": {"name": "NF-YB (protein, UniProt P25208 1-207, looked up)", "Nuclear transcription factor …": "B10 Nuclear transcription factor …"}}, "system": "HEK293FT cells transfected with TF library", "assay": "Screening of TF condensates based on fluorescent puncta", "type": "cell-based", "conditions": "Figure 1B numerical data; TF library screen, one value per transcriptional factor", "in_short": "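Each TF construct was introduced into HEK293FT cells using PEI at 4.8 μg/ml; glucose deprivation versus normal medium lasted 12 h. Automated confocal-style imaging of tagged TF staining, 50 fields per well, gave the puncta data.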", "data": [{"molecule": "B1", "values": [{"measurement": "Z score of condensed fraction", "value": -0.5752}]}, {"molecule": "B2", "values": [{"measurement": "Z score of condensed fraction", "value": 0.04386}]}, {"molecule": "B3", "values": [{"measurement": "Z score of condensed fraction", "value": 1.097}]}, {"molecule": "B4", "values": [{"measurement": "Z score of condensed fraction", "value": -0.7003}]}, {"molecule": "B5", "values": [{"measurement": "Z score of condensed fraction", "value": -0.6996}]}, {"molecule": "B6", "values": [{"measurement": "Z score of condensed fraction", "value": -0.3246}]}, {"molecule": "B7", "values": [{"measurement": "Z score of condensed fraction", "value": -0.8733}]}, {"molecule": "B8", "values": [{"measurement": "Z score of condensed fraction", "value": -0.1567}]}, {"molecule": "B9", "values": [{"measurement": "Z score of condensed fraction", "value": 0.298}]}, {"molecule": "B10", "values": [{"measurement": "Z score of condensed fraction", "value": 0.9401}]}, {"molecule": "B11", "values": [{"measurement": "Z score of condensed fraction", "value": 0.001922}]}]}
